Where “and” joins values, the source holds several entries; their conditions need not be identical. Equal values may be shown once. *1 amine or outer side, *2 acyl side, *3 side chain or, on linkers, in order; H or OH if unused. Bridges are numbered along the chain shown (N, C = ends). Where no end group is shown, it is not given here. Side-chain parts run from the residue outwards. [ ]: non-standard residue; d: D form. The star is where a group is joined. (mPEG)2 40 kDa = C3 = Cys(mPEG)240kDa, branched (mPEG)2, 40 kDa; Oxa12‑cholesterol = C10 = Cys(oxa12-cholesterol); γGlu = O=C(O)[C@H](CCC(=O)[*:2])N[*:1]; oxa12‑cholesterol = not defined here; Palmitoyl = CCCCCCCCCCCCCCCC(=O)*; Met(O) = CS(=O)CC[C@H](N)C(=O)O; Ac4c = NC1(C(=O)O)CCC1; Aib = CC(C)(N)C(=O)O
Experiments:
Test in all cases: cell-based or functional assay
human glucagon receptor [1] = molecular target: T1, human glucagon receptor (human, UniProt P47871 26-477)
human GLP-1 receptor [2] = molecular target: T2, human GLP-1 receptor (human, UniProt P43220 24-463)
human GLP-1 receptor [3] = molecular target: T2, human GLP-1 receptor; remark: listed apart in the source
human glucagon receptor [4] = molecular target: T1, human glucagon receptor; remark: listed apart in the source

T1 sequence (P47871 26-477): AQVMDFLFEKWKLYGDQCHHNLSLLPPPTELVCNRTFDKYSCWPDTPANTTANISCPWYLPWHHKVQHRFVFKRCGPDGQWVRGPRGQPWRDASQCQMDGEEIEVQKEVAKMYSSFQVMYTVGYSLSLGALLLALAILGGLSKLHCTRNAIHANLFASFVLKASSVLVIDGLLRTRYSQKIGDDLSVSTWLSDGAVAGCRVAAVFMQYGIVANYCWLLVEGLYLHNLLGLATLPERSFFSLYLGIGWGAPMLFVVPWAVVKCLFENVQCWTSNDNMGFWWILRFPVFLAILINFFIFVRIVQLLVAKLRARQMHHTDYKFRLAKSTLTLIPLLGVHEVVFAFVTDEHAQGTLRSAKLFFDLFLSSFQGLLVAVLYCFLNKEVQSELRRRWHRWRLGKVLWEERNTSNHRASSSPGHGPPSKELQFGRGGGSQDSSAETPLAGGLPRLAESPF

| Binder | hGCGR + 20% plasma EC50 (human glucagon receptor [1]) | hGCGR EC50 (human glucagon receptor [1]) | hGLP-1R + 20% Plasma EC50 (human GLP-1 receptor [2]) | hGLP-1R EC50 (human GLP-1 receptor [2]) | GLP-1R EC50 (human GLP-1 receptor [3]) | GCGR EC50 (human glucagon receptor [4]) | GCGR + 10% plasma (human glucagon receptor [4]) |
| --- | --- | --- | --- | --- | --- | --- | --- |
| H[Aib]QGTFTSDYSKYLDERRAKDFVQWLMNTK[γGlu][γGlu]C(Oxa12‑cholesterol)-OH (lactam 16-20) [OXM395] | 119 nM | 10 nM | 3.3 nM | 0.7 nM |  |  |  |
| HSQGTFTSDKSKYLDSRRAQDFVQWLMNTK (D-Ser at position 2; Lys(γE-γE-palmitoyl) at position 10; C-terminal amide) [OXM409] | 0.1 nM |  | 0.7 nM |  |  |  |  |
| H[Aib]QGTFTSDK([γGlu-γGlu-Palmitoyl])SKYLDERRAQDFVQWLMNTK-NH2 (N-terminus assumed; SMILES CCCCCCCCCCCCCCCC(=O)N[C@@H](CCC(=O)N[C@@H](CCC(=O)NCCCC[C@H](NC(=O)[C@H](CC(=O)O)NC(=O)[C@H](CO)NC(=O)[C@@H](NC(=O)[C@H](Cc1ccccc1)NC(=O)[C@@H](NC(=O)CNC(=O)[C@H](CCC(N)=O)NC(=O)C(C)(C)NC(=O)[C@@H](N)Cc1c[nH]cn1)[C@@H](C)O)[C@@H](C)O)C(=O)N[C@@H](CO)C(=O)N[C@@H](CCCCN)C(=O)N[C@@H](Cc1ccc(O)cc1)C(=O)N[C@@H](CC(C)C)C(=O)N[C@@H](CC(=O)O)C(=O)N[C@@H](CCC(=O)O)C(=O)N[C@@H](CCCNC(=N)N)C(=O)N[C@@H](CCCNC(=N)N)C(=O)N[C@@H](C)C(=O)N[C@@H](CCC(N)=O)C(=O)N[C@@H](CC(=O)O)C(=O)N[C@@H](Cc1ccccc1)C(=O)N[C@H](C(=O)N[C@@H](CCC(N)=O)C(=O)N[C@@H](Cc1c[nH]c2ccccc12)C(=O)N[C@@H](CC(C)C)C(=O)N[C@@H](CCSC)C(=O)N[C@@H](CC(N)=O)C(=O)N[C@H](C(=O)N[C@@H](CCCCN)C(N)=O)[C@@H](C)O)C(C)C)C(=O)O)C(=O)O) [OXM416] | 1.4 nM |  | 0.09 nM |  |  |  |  |
| H[Ac4c]QGTFTSDK([γGlu-γGlu-Palmitoyl])SKYLDERRAQDFVQWLMNTK-NH2 (N-terminus assumed; SMILES CCCCCCCCCCCCCCCC(=O)N[C@@H](CCC(=O)N[C@@H](CCC(=O)NCCCC[C@H](NC(=O)[C@H](CC(=O)O)NC(=O)[C@H](CO)NC(=O)[C@@H](NC(=O)[C@H](Cc1ccccc1)NC(=O)[C@@H](NC(=O)CNC(=O)[C@H](CCC(N)=O)NC(=O)C1(NC(=O)[C@@H](N)Cc2c[nH]cn2)CCC1)[C@@H](C)O)[C@@H](C)O)C(=O)N[C@@H](CO)C(=O)N[C@@H](CCCCN)C(=O)N[C@@H](Cc1ccc(O)cc1)C(=O)N[C@@H](CC(C)C)C(=O)N[C@@H](CC(=O)O)C(=O)N[C@@H](CCC(=O)O)C(=O)N[C@@H](CCCNC(=N)N)C(=O)N[C@@H](CCCNC(=N)N)C(=O)N[C@@H](C)C(=O)N[C@@H](CCC(N)=O)C(=O)N[C@@H](CC(=O)O)C(=O)N[C@@H](Cc1ccccc1)C(=O)N[C@H](C(=O)N[C@@H](CCC(N)=O)C(=O)N[C@@H](Cc1c[nH]c2ccccc12)C(=O)N[C@@H](CC(C)C)C(=O)N[C@@H](CCSC)C(=O)N[C@@H](CC(N)=O)C(=O)N[C@H](C(=O)N[C@@H](CCCCN)C(N)=O)[C@@H](C)O)C(C)C)C(=O)O)C(=O)O) [OXM417] | 0.4 nM |  | 0.15 nM |  |  |  |  |
| H[Aib]QGTFTSDYC((mPEG)2 40 kDa)KYLDSRRAQDFVQWL[Met(O)]NTKRNRNNIA-NH2 [OXM121] |  |  |  |  | > 125 nM |  |  |
| H[dS]QGTFTSDYSKYLDERRAKDFVQWLMNTK[γGlu][γGlu]C(oxa12‑cholesterol)-OH (lactam 16-20; reading uncertain) [OXM392] | 0.3 nM | 0.03 nM | 3 nM | 0.03 nM |  |  |  |
| HSQGTFTSDYSKYLDSRRAQDFVQWLMNTKEEC (D-Ser at position 2; gamma-glutamic acid at positions 31 and 32; C4 = Cys(cholesterol) at position 33; C-terminal COOH) [OXM345] | > 1000 nM | 0.1 nM | > 1000 nM | 5.1 nM |  |  |  |
| HSQGTFTSDYSKYLDSRRAQDFVQWLMNTKEEC (D-Ser at position 2; gamma-glutamic acid at positions 31 and 32; C7 = Cys(Oxa4-cholesterol) at position 33; C-terminal COOH) [OXM380] | 3.4 nM | 0.1 nM | 30.7 nM | 0.3 nM |  |  |  |
| HSQGTFTSDYSKYLDSRRAQDFVQWLMNTKEEC (D-Ser at position 2; gamma-glutamic acid at positions 31 and 32; C10 = Cys(oxa12-cholesterol) at position 33; C-terminal COOH) [OXM399] | 0.4 nM | 0.01 nM | 5.7 nM | 0.05 nM |  |  |  |
| HXQGTFTSDYSKYLDSRRAQDFVQWLMNTKEEC (Aib at position 2; gamma-glutamic acid at positions 31 and 32; C10 = Cys(oxa12-cholesterol) at position 33; C-terminal COOH) [OXM400] | 0.8 nM | 0.01 nM | 1.9 nM | 0.07 nM |  |  |  |
| HSQGTFTSDYSKYLDSRRAQDFVQWLMNTKEEC (D-Ser at position 2; gamma-glutamic acid at positions 31 and 32; C9 = Cys(mal-oxa12-cholesterol) at position 33; C-terminal COOH) [OXM381] | 0.8 nM and 0.9 nM |  | 1.9 nM |  |  |  |  |
| HXQGTFTSDYSKYLDSRRAQDFVQWLMNTKEEC (Acb (1-amino-1-cyclobutane carboxylic acid) at position 2; gamma-glutamic acid at positions 31 and 32; C10 = Cys(oxa12-cholesterol) at position 33; C-terminal COOH) [OXM401] | 0.3 nM | 0.09 nM | 2.9 nM | 0.23 nM |  |  |  |
| HSQGTFTSDYSKYLDSRRAQDFVQWLMNTKRNRNNIAC (not fully specified; D-Ser at position 2; C4 = Cys(cholest-5-en-3-yl{[(2R)-3-amino-2-(amino)-3-oxopropyl]thio}acetate) at position 38; C-terminal amide) [OXM36] |  |  |  |  |  | 12.1 nM |  |
| HSQGTFTSDYSKYLDSRRAQDFVQWLMNTKRNRNNIAK (D-Ser at position 2; K(palmitoyl) at position 38; C-terminal amide) [OXM110] |  |  |  |  |  | 0.31 nM | 6.9 nM |
| H[Aib]QGTFTSDYSC((mPEG)2 40 kDa)YLDSRRAQDFVQWL[Met(O)]NTKRNRNNIA-NH2 [OXM124] |  |  |  |  | > 100 nM |  |  |
| H[dS]QGTFTSDK([γGlu-γGlu-Palmitoyl])SKYLDERRAQDFVQWLMNTK-NH2 (N-terminus assumed; SMILES CCCCCCCCCCCCCCCC(=O)N[C@@H](CCC(=O)N[C@@H](CCC(=O)NCCCC[C@H](NC(=O)[C@H](CC(=O)O)NC(=O)[C@H](CO)NC(=O)[C@@H](NC(=O)[C@H](Cc1ccccc1)NC(=O)[C@@H](NC(=O)CNC(=O)[C@H](CCC(N)=O)NC(=O)[C@@H](CO)NC(=O)[C@@H](N)Cc1c[nH]cn1)[C@@H](C)O)[C@@H](C)O)C(=O)N[C@@H](CO)C(=O)N[C@@H](CCCCN)C(=O)N[C@@H](Cc1ccc(O)cc1)C(=O)N[C@@H](CC(C)C)C(=O)N[C@@H](CC(=O)O)C(=O)N[C@@H](CCC(=O)O)C(=O)N[C@@H](CCCNC(=N)N)C(=O)N[C@@H](CCCNC(=N)N)C(=O)N[C@@H](C)C(=O)N[C@@H](CCC(N)=O)C(=O)N[C@@H](CC(=O)O)C(=O)N[C@@H](Cc1ccccc1)C(=O)N[C@H](C(=O)N[C@@H](CCC(N)=O)C(=O)N[C@@H](Cc1c[nH]c2ccccc12)C(=O)N[C@@H](CC(C)C)C(=O)N[C@@H](CCSC)C(=O)N[C@@H](CC(N)=O)C(=O)N[C@H](C(=O)N[C@@H](CCCCN)C(N)=O)[C@@H](C)O)C(C)C)C(=O)O)C(=O)O) [OXM411] | 0.2 nM |  | 0.1 nM |  |  |  |  |

Reference: patent US20120165503A1 (Merck Sharp & Dohme, published 2012)
